The target in the assay is Med25 AcID, Med25(394-543)-His6 (UniProt Q71SY5). The experiment in a line: stopped-flow fluorescence transient kinetics.
Chain of Med25 AcID, Med25(394-543)-His6 (Q71SY5 394-543): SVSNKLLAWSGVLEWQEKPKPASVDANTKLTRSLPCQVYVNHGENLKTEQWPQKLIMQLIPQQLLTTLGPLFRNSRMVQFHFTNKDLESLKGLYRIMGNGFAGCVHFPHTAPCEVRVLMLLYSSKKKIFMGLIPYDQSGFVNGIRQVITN

“ETV4^∆Nt TAD with 4-DMN on the N terminus (from UniProt P43268 49-484) (peptide)”: the fold gain in affinity against the parent TAD came to 1.7 fold. To “ETV1^∆Nt TAD with 4-DMN on the N terminus (from UniProt P50549 42-477) (peptide)” belongs 1.7 fold.

These data come from paper PMC7959569.
